The source of these data is patent publication US20170283479.

Data set [1] deals with insulin analogs where the A-chain is derived from the native insulin sequence.
For data set [2], the target named is analogs where the A-chain is derived from the sequence of IGF-1.

B1: rDNA rat insulin-specific degrading enzyme (IDE) (protein)
chain: MNNPAIQRIEDHIVKSPEDKREYRGLELANGIKVLLISDPTTDKSSAALDVHIGSLSDPPNIPGLSHFCEHMLFLGTKKYPKENEYSQFLSEHAGSSNAFTSGEHTNYYFDVSHEHLEGALDRFAQFFLCPLFDASCKDREVNAVDSEHEKNVMNDAWRLFQLEKATGNPKHPFSKFGTGNKYTLETRPNQEGIDVREELLKFHSTYYSSNLMAICVLGRESLDDLTNLVVKLFSEVENKNVPLPEFPEHPFQEEHLKQLYKIVPIKDIRNLYVTFPIPDLQQYYKSNPGHYLGHLIGHEGPGSLLSELKSKGWVNTLVGGQKEGARGFMFFIINVDLTEEGLLHVEDIILHMFQYIQKLRAEGPQEWVFQECKDLNAVAFRFKDKERPRGYTSKIAGKLHYYPLNGVLTAEYLLEEFRPDLIDMVLDKLRPENVRVAIVSKSFEGKTDRTEQWYGTQYKQEAIPEDVIQKWQNADLNGKFKLPTKNEFIPTNFEILALEKDATPYPALIKDTAMSKLWFKQDDKFFLPKACLNFEFFSPFAYVDPLHCNMAYLYLELLKDSLNEYAYAAELAGLSYDLQNTIYGMYLSVKGYNDKQPILLKKITEKMATFEIDKKRFEIIKEAYMRSLNNFRAEQPHQHAMYYLRLLMTEVAWTKDELKEALDDVTLPRLKAFIPQLLSRLHIEALLHGNITKQAALGVMQMVEDTLIEHAHTKPLLPSQLVRYREVQLPDRGWFVYQRRNEVHNNCGIEIYYQTDMQSTSENMFLELFCQIISEPCFNTLRTKEQLGYIVFSGPRRANGIQGLRFIIQSEKPPHYLESRVEAFLITMEKAIEDMTEEAFQKHIQALAIRRLDKPKKLSAECAKYWGEIISQQYNYDRDNIEVAYLKTLSKDDIIKFYKEMLAVDAPRRHKVSVHVLAREMDSCPVVGEFPSQNDINLSEAPPLPQPEVIHNMTEFKRGLPLFPLVKPHINFMAAKL
With B1, the “cleavage by IDE (HPLC and residual insulin receptor phosphorylation activity)” value in data set [1] was “extremely robust and easily detected”; in data set [2] it was “appear to be extremely resistant to proteolysis”.
